Biological target: T1, RANK (Receptor Activator for Nuclear Factor κB) (UniProt Q9Y6Q6 30-616, limits assumed)
T1 construct: whole, on cells; Endogenous receptor on THP1 monocytes; also called RANKL receptor
T1 sequence (looked up): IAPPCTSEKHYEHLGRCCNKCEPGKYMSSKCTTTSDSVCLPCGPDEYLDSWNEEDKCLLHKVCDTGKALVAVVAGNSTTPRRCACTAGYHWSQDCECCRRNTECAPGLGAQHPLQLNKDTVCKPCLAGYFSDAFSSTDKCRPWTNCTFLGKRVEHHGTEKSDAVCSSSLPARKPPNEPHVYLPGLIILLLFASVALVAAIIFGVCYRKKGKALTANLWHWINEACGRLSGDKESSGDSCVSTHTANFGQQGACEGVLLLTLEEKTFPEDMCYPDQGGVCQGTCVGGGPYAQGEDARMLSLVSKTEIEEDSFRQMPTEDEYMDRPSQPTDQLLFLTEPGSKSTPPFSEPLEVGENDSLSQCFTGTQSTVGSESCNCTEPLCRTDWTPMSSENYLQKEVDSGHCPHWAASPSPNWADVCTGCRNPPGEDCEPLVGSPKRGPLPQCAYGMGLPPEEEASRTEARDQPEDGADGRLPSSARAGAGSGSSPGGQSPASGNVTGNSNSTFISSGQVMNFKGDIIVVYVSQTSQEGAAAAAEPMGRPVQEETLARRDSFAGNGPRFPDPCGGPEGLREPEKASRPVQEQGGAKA
Assay: flow cytometry; 5 µg RIG on 1*10^6 THP1 monocytes, detected with FITC labeled anti human RANKL antibody
Experimental: 1*10⁶ THP1 monocytes were grown in MCSF and RANKL medium for 72 hours and mixed with 5 μg purified RIG protein from Implementation 1 for additional 1 hour at 4° C. 5 μl FITC labeled anti human RANKL antibody (CALTAG, CA) was then added into the mixture and flow cytometry was used to examine FITC positive cells. […] In FIG. 4, SSC-H presents the pellet number in cytoplasm, FSC-H presents the cell size, FL2-H presents PE and FL1-H presents FITC.

binding result: binds
B1: fusion protein RIG (Fc fusion)
chain: MRRASRDYTKYLRGSEEMGGGPGAPHEGPLHAPPPPAPHQPPAASRSMFVALLGLGLGQVVCSVALFFYFRAQMDPNRISEDGTHCIYRILRLHENADFQDTTLESQDTKLIPDSCRRIKQAFQGAVQKELQHIVGSQHIRAEKAMVDGSWLDLAKRSKLEAQPFAHLTINATDIPSGSHKVSLSSWYHDRGWAKISNMTFSNGKLIVNQDGFYYLYANICFRHHETSGDLATEYLQLMVYVTKTSIKIPSSHTLMKGGSTKYWSGNSEFHFYSINVGGFFKLRSGEEISIEVSNPSLLDPDQDATYFGAFKVRDIDGSEPKSCDKTHTCPPCPAPELLGGPSVFLFPPKPKDTLMISATPEVTCVVVDVSHEDPEVKFMWYVDGVEVHNAKTKPAEEQYNSTYAVVSVLTVLHQDWLNGKEYKCKVSNKALPAPIEKTISKAKGQPAEPQVYTLPPSRDELTYNQVSLTCLVKGFYPSDIAVEWESNGQPENNYKTTPPVLDSDGSFFLYSKLTVDKSRWQQGNVFSCSVMHEALHNHYTQKSLSLSPGK
notes: also called RANKL-Fcγ fusion protein; RIG protein
